# T1: RVFV glycoprotein Gn head domain (154–469 aa) (Rift Valley fever virus, UniProt P21401 154-469)
# T1 chain: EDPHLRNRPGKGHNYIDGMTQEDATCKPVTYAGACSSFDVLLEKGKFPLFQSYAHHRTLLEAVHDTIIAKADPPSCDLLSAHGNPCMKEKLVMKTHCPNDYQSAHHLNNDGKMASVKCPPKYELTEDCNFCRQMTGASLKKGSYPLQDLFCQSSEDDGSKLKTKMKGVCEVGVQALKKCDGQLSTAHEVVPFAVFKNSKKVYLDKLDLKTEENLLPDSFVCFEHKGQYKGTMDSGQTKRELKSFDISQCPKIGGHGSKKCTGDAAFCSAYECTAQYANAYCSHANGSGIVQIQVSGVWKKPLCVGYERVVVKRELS
# Biological target: T1, RVFV glycoprotein Gn head domain …
# Test: BLI
binder,measurement,value
LRP1 single complement-type repeat CR25 fused to human Fc (Fc fusion) not shown,Kd,67 nM

# — PMC12839305 (2025)
